Among the data in the Immune Epitope Database (IEDB) are Kd and IC50 values, retold here.

pIC50, pKd: −log10 of the molar value.

The target in one experiment is HLA-A*01:01. The experiment can be described thus: IEDB peptide-MHC binding, purified MHC/direct/fluorescence; filed as Kd, often an IC50 or EC50 that approximates it; ≥ and ≤ were set here for values at or beyond the usual limits of such assays.
The target of experiment [1] is HLA-A*02:01. The description is as above.
Experiment [2] has as its target HLA-A*03:01. The experiment is described as above.
Another experiment concerns the target HLA-A*11:01. The experiment is described as above. Particulars: source organism: Escherichia coli O157:H7.
Another experiment concerns the target HLA-A*26:01. Described as above.
A further experiment addresses HLA-A*31:01. The description is as above. As to conditions: source organism: Escherichia coli O157:H7.
The target of another experiment is HLA-A*69:01. Described as above.
For another experiment, the target named is HLA-B*07:02. The experiment is described as above.
The target in the next experiment is HLA-B*08:01. The experiment is described as above. As to conditions: source organism: Escherichia coli O157:H7.
The next experiment addresses HLA-B*15:01. Described as above.
In another experiment the target is HLA-B*27:05. The experiment is described as above. Particulars: source organism: Escherichia coli O157:H7.
For a further experiment, the target named is HLA-B*35:01. The description is as above.
The target in the next experiment is HLA-B*40:01. The description is as above. Particulars: source organism: Escherichia coli O157:H7.
In the next experiment the target is HLA-B*44:02. The experiment is described as above. As to conditions: source organism: Escherichia coli O157:H7.
Experiment [3] deals with HLA-B*58:01. The experiment is described as above. As to conditions: source organism: Escherichia coli O157:H7.
The target in experiment [4] is HLA-A*02:01. The experiment can be described thus: IEDB peptide-MHC binding, purified MHC/competitive/radioactivity; ≥ and ≤ were set here for values at or beyond the usual limits of such assays.
In another experiment the target is HLA-A*24:03. Nature of the experiment: IEDB peptide-MHC binding, purified MHC/direct/fluorescence; filed as Kd, often an IC50 or EC50 that approximates it; ≥ and ≤ were set here for values at or beyond the usual limits of such assays. As to conditions: source organism: Escherichia coli O157:H7.
Experiment [5] addresses HLA-A*03:01. Nature of the experiment: IEDB peptide-MHC binding, purified MHC/competitive/fluorescence; filed as Kd, often an IC50 or EC50 that approximates it; ≥ and ≤ were set here for values at or beyond the usual limits of such assays. As to conditions: source organism: Yersinia pestis Nepal516.
The target of experiment [6] is HLA-B*58:01. Described as above. Particulars: source organism: Yersinia pestis Nepal516.
The next experiment deals with HLA-B*53:01. The experiment can be described thus: IEDB peptide-MHC binding, purified MHC/competitive/fluorescence; ≥ and ≤ were set here for values at or beyond the usual limits of such assays. Particulars: source organism: Human herpesvirus 4 type 2.
The target of the next experiment is HLA-A*02:03. Nature of the experiment: IEDB peptide-MHC binding, purified MHC/direct/fluorescence; filed as Kd, often an IC50 or EC50 that approximates it; ≥ and ≤ were set here for values at or beyond the usual limits of such assays. As to conditions: source organism: Encephalitozoon cuniculi GB-M1.
The next experiment concerns the target HLA-A*02:11. Described as above. As to conditions: source organism: Encephalitozoon cuniculi GB-M1.
A further experiment has as its target HLA-A*02:12. Described as above. As to conditions: source organism: Encephalitozoon cuniculi GB-M1.
The target in another experiment is HLA-A*02:16. The experiment is described as above. Particulars: source organism: Encephalitozoon cuniculi GB-M1.
A further experiment concerns the target HLA-A*02:19. The description is as above. Particulars: source organism: Encephalitozoon cuniculi GB-M1.
For another experiment, the target named is HLA-A*68:02. Described as above. As to conditions: source organism: Encephalitozoon cuniculi GB-M1.
The next experiment has as its target HLA-B*18:01. Described as above. Particulars: source organism: Encephalitozoon cuniculi GB-M1.
The next experiment has as its target HLA-B*27:03. Described as above. Particulars: source organism: Encephalitozoon cuniculi GB-M1.
A further experiment deals with HLA-B*39:01. The description is as above. As to conditions: source organism: Encephalitozoon cuniculi GB-M1.
The next experiment concerns the target HLA-B*46:01. Described as above. As to conditions: source organism: Encephalitozoon cuniculi GB-M1.
Experiment [7] has as its target HLA-B*51:01. The description is as above. Particulars: source organism: Encephalitozoon cuniculi GB-M1.
The target of another experiment is HLA-B*57:01. The description is as above. Particulars: source organism: Encephalitozoon cuniculi GB-M1.
Experiment [8] deals with HLA-B*51:01. Nature of the experiment: IEDB peptide-MHC binding, purified MHC/competitive/fluorescence; ≥ and ≤ were set here for values at or beyond the usual limits of such assays. As to conditions: source organism: Mus musculus.
A further experiment addresses HLA-C*03:03. The experiment can be described thus: IEDB peptide-MHC binding, purified MHC/direct/fluorescence; filed as Kd, often an IC50 or EC50 that approximates it; ≥ and ≤ were set here for values at or beyond the usual limits of such assays. Particulars: source organism: Mus musculus.
Where [9] appears, read: source organism: Escherichia coli O6.
Where [10] appears, read: source organism: Escherichia coli O157:H7.
[11] abbreviates: source organism: Hepatitis B virus.
Setting [12] is: source organism: Encephalitozoon cuniculi GB-M1.

One may read the pKd as the Kd on a negative log10 scale, so that one unit is a factor of ten. Read a high pKd as a small Kd. Turning to AHGWSTFYL, the negative-log Kd (pKd) in the experiment with HLA-A*01:01 (setting [9]) is 5.50; with HLA-A*02:01 [1] (setting [10]), no more than 4.70; in the experiment with HLA-A*03:01 [2] (setting [10]) it was no more than 4.70; with HLA-A*11:01 it was no more than 4.70; with HLA-A*26:01 (setting [10]) it was no more than 4.70; with HLA-A*31:01, no more than 4.70. For the same sequence, the negative-log Kd (pKd) is 5.81 with HLA-A*69:01 (setting [9]); no more than 4.70 with HLA-B*07:02 (setting [10]); no more than 4.70 with HLA-B*08:01; no more than 4.70 in the experiment with HLA-B*15:01 (setting [10]); no more than 4.70 with HLA-B*27:05; 5.68 in the experiment with HLA-B*35:01 (setting [9]). Moreover, the negative logarithm of the Kd (pKd) with HLA-B*40:01, in the experiment with HLA-B*44:02 and in the experiment with HLA-B*58:01 [3] was no more than 4.70 throughout.
For FPFWGCFVS, the pKd in the experiment with HLA-B*35:01 (source organism: Rickettsia prowazekii) was 8.70.
In general, pIC50 refers to the negative decadic logarithm of the IC50, by convention in mol/L. Consider ILSTLPETTV, for which the pIC50 with HLA-A*02:01 [4] (setting [11]) is 6.63.
For the sequence LPEFERRTL, the negative logarithm of the Kd (pKd) with HLA-A*01:01 (setting [10]), with HLA-A*02:01 [1] (setting [10]), in the experiment with HLA-A*03:01 [2] (setting [10]), in the experiment with HLA-A*11:01, with HLA-A*24:03 and in the experiment with HLA-A*26:01 (setting [10]) was no more than 4.70 in each case. Further, the pKd with HLA-A*31:01 is no more than 4.70; in the experiment with HLA-A*69:01 (setting [10]), no more than 4.70; with HLA-B*07:02 (setting [10]) it was 7.43; in the experiment with HLA-B*08:01 it was 5.37; in the experiment with HLA-B*15:01 (setting [10]) it was no more than 4.70; with HLA-B*27:05, no more than 4.70. Besides, the pKd is 7.79 in the experiment with HLA-B*35:01 (setting [10]), no more than 4.70 with HLA-B*40:01, no more than 4.70 with HLA-B*44:02 and no more than 4.70 in the experiment with HLA-B*58:01 [3].
For the sequence MTTSMTMSY, the pKd was 6.52 with HLA-A*03:01 [5] and 7.32 with HLA-B*58:01 [6].
As for QAYAAPQLF, in the experiment with HLA-B*53:01, the pIC50 is 7.15.
QLLWFHISCL: the negative logarithm of the IC50 (pIC50) with HLA-A*02:01 [4] (setting [11]) was 6.41.
Turning to RVASPTSGV, the pIC50 in the experiment with HLA-A*02:01 [4] (source organism: Homo sapiens) is 6.14.
On to SPLPITLKY, for which the negative-log Kd (pKd) with HLA-A*02:01 [1] (setting [12]), with HLA-A*02:03, with HLA-A*02:11, in the experiment with HLA-A*02:12, with HLA-A*02:16 and with HLA-A*02:19 was no more than 4.70 each time. The pKd in the experiment with HLA-A*03:01 [2] (setting [12]) was no more than 4.70; in the experiment with HLA-A*26:01 (setting [12]) it was no more than 4.70; in the experiment with HLA-A*68:02, no more than 4.70; with HLA-B*07:02 (setting [12]) it was 5.35; with HLA-B*15:01 (setting [12]) it was no more than 4.70; with HLA-B*18:01 it was no more than 4.70. Also, the negative-log Kd (pKd) was no more than 4.70 in the experiment with HLA-B*27:03; 8.70 in the experiment with HLA-B*35:01 (setting [12]); no more than 4.70 in the experiment with HLA-B*39:01; no more than 4.70 with HLA-B*46:01; no more than 4.70 in the experiment with HLA-B*51:01 [7]; no more than 4.70 in the experiment with HLA-B*57:01.
In turn, VALFSSCPV gave a pIC50 with HLA-B*51:01 [8] of 5.73. In the experiment with HLA-C*03:03, this sequence gave a pKd of 8.70.
